One series deals with H3_1–20 K9me2 peptide. Description: Fluorescence polarization binding to H3K9me2 peptide. The conditions noted are these: listed as G9a. The procedure: (§1) Polarization assays with fluoresceinated H3_1–20 K9me1 or K9me2 peptides, 147 bp 601 DNA template, and core nucleosomes were performed and Kd values estimated as described ([11]) with the following modifications: The reaction buffer was 100 mM Tris pH 8, 100 mM KCl, 1 mM MgCl2, 20 μM ZnSO4, 10 mM BME, 0.1% NP-40. The concentration of peptides and nucleosomes was 150 nM and 200 nM for DNA. Polarization measurements were conducted on a Biotek Cytation 5 (peptide and nucleosome) or Molecular Devices Spectramax (DNA) plate reader with low-volume plates (Corning) in either 10 μl (peptide, nucleosome) or 40 μl (DNA) total volume.
For orientation: In fluorescence polarisation assays a small probe gives low polarisation when free and higher when bound to something large.

The subject of the next series is H3_1–20 peptide. Description: H3 tail peptide methylation kinetics (multiple turnover). The series is classed as biochemical. The conditions noted are these: Michaelis–Menten, 9 μM 3H-SAM + 1000 μM cold SAM, 0.4 to 0.8 μM enzyme, pH 8, duplicates, 95% CI: G9a-G9a 24.6-34.6, GLP-GLP 9.5-15.5, G9a-GLP 26.0-34.5, G9aS-GLP 20.5-28.3, listed as G9a. The protocol: Substrate peptides or nucleosomes were mixed in a solution containing 9 μM tritiated S-Adenosyl Methionine (SAM, PerkinElmer) cofactor, and reactions were initiated upon addition of 0.4 to 0.8 μM enzyme. Peptide reactions were supplemented with 1000 μM cold SAM to fully saturate the SAM-binding pocket (Fig. S3). Due to signal limitations, nucleosome reactions were not supplemented with SAM (see Supporting methods). Reactions were run in 100 mM Tris pH 8, 100 mM KCl, 1 mM MgCl2, 20 μM ZnSO4, 10 mM BME and quenched with laemmli buffer. Peptide reactions were performed as described ([11]). Nucleosome methylation reactions were read out via autoradiography as described ([11]), except that proteins were separated on an 18% SDS PAGE gel.
All methylation reactions (except Fig. S4A) were performed under Multiple Turnover conditions ([25]). To determine initial rates, methylation time courses were traced at various concentrations of H3K9-containing substrate while keeping the concentration of SAM and enzyme constant. Plots of initial rate versus concentration H3K9 substrate measured in duplicate or triplicate were fit to V = Vmax∗[S]/(KM + [S]) using Prism software to extract KM and kcat (or kobs) values as well as the 95% confidence interval bounds of the fit. See Supporting methods for special considerations for nucleosome kinetics.

In series [1] the test system is H3K9me1 monomethylated mononucleosomes. The experiment in a line: Fluorescence polarization binding to H3K9me1 mononucleosome.
Excerpt: (§2) Histone proteins and nucleosomes were purified as described ([11], [26]) with modifications (see Supporting methods). For fluorescence polarization, nucleosomes were reconstituted with a 5ʹ fluoresceinated DNA template. H3K9 dimethylation was installed via Methyl-Lysine Analog (MLA) technology as described ([10], [26]). K9 MLA-monomethylated H3 was purchased from Active Motif. H3K27A was introduced by site-directed mutagenesis and purified as described ([26]).
as §1

A further series relates to H3_1–20 K9me1 peptide. The experiment in a line: Fluorescence polarization binding to H3K9me1 peptide. The note with it: listed as G9a. The protocol:
as §1

Series [2] concerns the target unmethylated (H3K9me0) mononucleosomes. The experiment in a line: Fluorescence polarization binding to unmethylated mononucleosome. The conditions noted are these: 147 bp 601 DNA 5ʹ fluorescein-labeled nucleosomes, 150 nM, pH 8, 100 mM KCl, 0.1% NP-40, 95% CI (μM): G9a 6.4-8.6, G9a-GLP 5.6-7.6, GLP-GLP 17.4-41.5, read-out: Kd, unmethylated (me0) mononucleosome.
Excerpt: as §2, §1

For series [3], the system named is H3K9me2 dimethylated mononucleosomes. Description: Fluorescence polarization binding to H3K9me2 mononucleosome.
Excerpt: as §2, §1

The text below walks through data of article PMC8564726, “Heterodimerization of H3K9 histone methyltransferases G9a and GLP activates methyl reading and writing capabilities” (The Journal of Biological Chemistry, 2021).

Entries after “also recorded” stand apart in the source; their conditions may differ.

The Kd is the constant that tells how readily two partners part at equilibrium.

B1: G9a-G9a: homodimer of G9a truncated to the C-terminal ANK and SET domains (ANK-SET) (protein)
chain: MRGLPRGRGLMRARGRGRAAPTGGRGRGRGGAHRGRGRPRSLLSLPRAQASWAPQLPAGLTGPPVPCLPSQGEAPAEMGALLLEKEPRGAAERVHSSLGDTPQSEETLPKANPDSLEPAGPSSPASVTVTVGDEGADTPVGAASLIGDEPESLEGDGGRIVLGHATKSFPSSPSKGGACPSRAKMSMTGAGKSPPSVQSLAMRLLSMPGAQGAATAGPEPSPATTAAQEGQPKVHRARKTMSKPSNGQPPIPEKRPPEVQHFRMSDDMHLGKVTSDVAKRRKLNSGSLSEDLGSAGGSGDIILEKGEPRPLEEWETVVGDDFSLYYDAYSVDERVDSDSKSEVEALAEQLSEEEEEEEEEEEEEEEEEEEEEEEEEDEESGNQSDRSGSSGRRKAKKKWRKDSPWVKPSRKRRKREPPRAKEPRGVNGVGSSGPSEYMEVPLGSLELPSEGTLSPNHAGVSNDTSSLETERGFEELPLCSCRMEAPKIDRISERAGHKCMATESVDGELLGCNAAILKRETMRPSSRVALMVLCEAHRARMVKHHCCPGCGYFCTAGTFLECHPDFRVAHRFHKACVSQLNGMVFCPHCGEDASEAQEVTIPRGDGGTPPIGTAAPALPPLAHDAPGRADTSQPSARMRGHGEPRRPPCDPLADTIDSSGPSLTLPNGGCLSAVGLPPGPGREALEKALVIQESERRKKLRFHPRQLYLSVKQGELQKVILMLLDNLDPNFQSDQQSKRTPLHAAAQKGSVEICHVLLQAGANINAVDKQQRTPLMEAVVNNHLEVARYMVQLGGCVYSKEEDGSTCLHHAAKIGNLEMVSLLLSTGQVDVNAQDSGGWTPIIWAAEHKHIDVIRMLLTRGADVTLTDNEENICLHWASFTGSAAIAEVLLNAQCDLHAVNYHGDTPLHIAARESYHDCVLLFLSRGANPELRNKEGDTAWDLTPERSDVWFALQLNRKLRLGVGNRAVRTEKIICRDVARGYENVPIPCVNGVDGEPCPEDYKYISENCETSTMNIDRNITHLQHCTCVDDCSSSNCLCGQLSIRCWYDKDGRLLQEFNKIEPPLIFECNQACSCWRSCKNRVVQSGIKVRLQLYRTAKMGWGVRALQTIPQGTFICEYVGELISDAEADVREDDSYLFDLDNKDGEVYCIDARYYGNISRFINHLCDPNIIPVRVFMLHQDLRFPRIAFFSSRDIRTGEELGFDYGDRFWDIKSKYFTCQCGSEKCKHSAEAIALEQSRLARLDPHPELLPDLSSLPPINT
Take B1: the “affinity for H3K9me2 peptide, in words” value in the series with H3_1–20 K9me2 peptide was “no discernable affinity for me1 or me2 peptides; also recorded: does not recognize H3K9me1/2 peptides”. The “kcat, H3_1–20 peptide” value in the series with H3_1–20 peptide is approximately 0.55 s⁻¹. In series [1], the “binding to H3K9me1 nucleosomes, in words” value is recorded as “decreases compared with unmethylated nucleosomes”. Besides, the “affinity for H3K9me1 peptide, in words” value in the series with H3_1–20 K9me1 peptide is “no discernable affinity for me1 or me2 peptides; also recorded: does not recognize H3K9me1/2 peptides”. The dissociation constant (Kd) in series [2] is 6 to 7 µM. In addition, the “binding to H3K9me2 nucleosomes, in words” value in series [3] is listed as “decreases compared with unmethylated nucleosomes”.
